Data on one molecule can be found in publication doi:10.1101/2021.10.12.464104 (bioRxiv, 2021).

For the assay, the target named is mCer-α1 (human Na+/K+-ATPase α1 subunit fused to the C-terminus of mCerulean) (human, UniProt P05023 1-1023). The assay is described as follows: FRET or BRET.

B1: PLM-YFP (human phospholemman fused to the N-terminus of YFP) (natural protein)
chain: ESPKEHDPFTYDYQSLQIGGLVIAGILFILGILIVLSRRCRCKFNQQQRTGEPDEEEGTFRSSIRRLSTRRR
With B1, the “stoichiometry N” value is greater than 1.
